According to patent publication US20240115720A1 (published 2024):
Where two headings read alike, the source gives them in different places.

T1: Recombinant Human DLL3 Protein (amino acids Ala27-Ala479, cat #9749-DL, R&D Systems) (UniProt Q9NYJ7 27-479)
T1 chain: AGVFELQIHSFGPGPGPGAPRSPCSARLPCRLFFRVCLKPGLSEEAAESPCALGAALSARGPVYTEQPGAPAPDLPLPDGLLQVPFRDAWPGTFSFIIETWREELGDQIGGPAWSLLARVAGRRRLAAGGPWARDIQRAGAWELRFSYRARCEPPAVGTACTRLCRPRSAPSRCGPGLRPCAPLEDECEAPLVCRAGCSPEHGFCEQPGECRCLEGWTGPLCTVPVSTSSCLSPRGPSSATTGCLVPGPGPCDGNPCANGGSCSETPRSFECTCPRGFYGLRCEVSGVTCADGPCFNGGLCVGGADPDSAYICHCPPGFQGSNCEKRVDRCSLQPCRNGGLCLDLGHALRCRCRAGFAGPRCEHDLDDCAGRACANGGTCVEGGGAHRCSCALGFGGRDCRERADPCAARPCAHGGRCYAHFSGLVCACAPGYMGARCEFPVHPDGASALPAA

B1: 6-G23-F (antibody, V domains shown)
VH: QVQLVQSGAEVKKPGASVKVSCKASGYTFTSYYIHWVRQAPGQGLEWMGIIDPSDGSTNYAQKFQGRVTMTRDTSTSTVYMELSSLRSEDTAVYYCARDREYNYYGLDVWGQGTTVTVSS
VL: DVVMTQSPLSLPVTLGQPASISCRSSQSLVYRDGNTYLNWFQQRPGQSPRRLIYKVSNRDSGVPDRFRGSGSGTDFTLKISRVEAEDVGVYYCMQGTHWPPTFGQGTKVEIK
B2: 2-C8-A (antibody, V domains shown)
VH: EVQLVESGGGLVQPGGSQRLSCAASGFTFSSYWMNWVRQAPGKGLEWVANIKEDGSEKYYVDSVKGRFTISRDNAKNSLYLQMNSLRAEDTAVYYCARDPGWAPFDYWGQGTLVTVSS
VL: DIQMSQSPSSLSASVGDRVTITCRASQGISNYLAWFQQKPGKAPKSLIYAASSLQSGVPSKFSGSGSGTDFTLAISSLQPEDFATYYCQQYNSFPYTFGQGTTLEIK
B3: 7-I1-B (antibody, V domains shown)
VH: EVQLVESGGGLVKPGGSLRLSCAASGFTFSNTWMSWVRQAPGKGLEWVGRIKSKSDGGTTDYAAPVKGRFTISRDDSKNTLYLQMNSLKTEDTAVYYCTQYYWNSFDYWGQGTLVTVSS
VL: not shown
B4: 10-O18-A (antibody, V domains shown)
VH: QVQLQESGPGLVKPSETLSLTCTVSGGSINSYYWSWIRQPPGKGLEWIGYIFYSGITNYNPSLKSRVTISLDTSKNQFSLKLSSVTAADTAVYYCARIGVAGFYFDYWGQGTLVTVSS
VL: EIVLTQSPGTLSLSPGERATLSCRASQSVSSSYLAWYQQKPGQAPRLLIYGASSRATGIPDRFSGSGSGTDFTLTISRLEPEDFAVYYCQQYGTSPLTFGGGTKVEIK

Legend:
Assay in all cases: BLI (Octet HTX)
[1] = target: T1, Recombinant Human DLL3 Protein (amino …)
[2] = target: T1, Recombinant Human DLL3 Protein (amino …)
[3] = target: T1, Recombinant Human DLL3 Protein (amino …)

Binder	Kd [1]	Kd [2]	Kd [3]
B1	0.16 nM	0.16 nM	–
B2	–	0.668 nM	0.668 nM
B3	0.686 nM	0.68 nM	–
B4	–	0.62 nM	0.602 nM
